From patent US20190083600

Tested on: T1, RSV attachment (G) glycoprotein of RSV strain A2
T1 sequence: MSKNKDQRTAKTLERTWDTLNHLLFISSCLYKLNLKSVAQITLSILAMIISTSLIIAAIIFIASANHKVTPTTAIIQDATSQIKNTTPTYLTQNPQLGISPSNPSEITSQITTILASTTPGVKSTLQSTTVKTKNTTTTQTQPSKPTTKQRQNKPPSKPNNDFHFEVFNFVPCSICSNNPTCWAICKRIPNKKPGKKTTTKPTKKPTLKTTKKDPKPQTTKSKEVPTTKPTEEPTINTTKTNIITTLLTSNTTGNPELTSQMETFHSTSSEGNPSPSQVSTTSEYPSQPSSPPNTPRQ

cathepsin L
G protein cleavage on virions treated in vitro with 50 ng/ul cathepsin L at pH 5.5 (immunoblot): When incubated with cathepsin L after growth, the virus that was grown in the presence of a cathepsin L inhibitor contained a cleaved G protein
